# Data published in US20100080803A1.
# Where no end group is shown, it is not given here.
# Target: a seven trans-membrane receptor
# Test: cell-based or functional assay
binder,measurement,value
"AAHLPAEFTPAVHASLDKF-NH2 [2.022 kDa peptide, amino acids 110-128 of α-chain hemoglobin (SEQ ID No: 9)]",half-saturation effect of the peptide on the decrease in cell area of A7R5 cells with 5 nM bradykinin,9.35 µM
same,"increase of rat uterine contraction in the presence of oxytocin (isometric tissue bath, 100 µM peptide)",30%
